Assay results taken from US20020160013A1 (RECEPTRON, published 2002).

T1: GLUT4 (rat, UniProt P19357 1-509)
T1 sequence (looked up): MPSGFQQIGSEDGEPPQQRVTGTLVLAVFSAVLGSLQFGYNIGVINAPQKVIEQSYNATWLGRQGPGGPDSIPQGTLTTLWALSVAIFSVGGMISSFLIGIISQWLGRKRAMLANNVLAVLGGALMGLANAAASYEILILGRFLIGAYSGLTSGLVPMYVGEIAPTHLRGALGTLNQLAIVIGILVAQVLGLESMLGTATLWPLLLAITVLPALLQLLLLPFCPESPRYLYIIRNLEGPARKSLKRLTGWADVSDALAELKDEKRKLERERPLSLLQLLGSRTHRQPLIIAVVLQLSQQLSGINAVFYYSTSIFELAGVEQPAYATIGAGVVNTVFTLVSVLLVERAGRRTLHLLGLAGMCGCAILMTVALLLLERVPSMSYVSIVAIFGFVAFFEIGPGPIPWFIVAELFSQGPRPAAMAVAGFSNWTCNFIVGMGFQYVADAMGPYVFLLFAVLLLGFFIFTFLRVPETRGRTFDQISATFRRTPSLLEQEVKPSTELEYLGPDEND


Columns and labels:
Test in all cases: cell-based or functional assay
[1] = molecular target: Leptin Receptor, long form (UniProt P48357)
GLUT4 = molecular target: T1, GLUT4
[2] = molecular target: Leptin Receptor, long form, P48357
human insulin receptor = human insulin receptor (human, UniProt P06213 28-1382)
[3] = molecular target: mutated form of the insulin receptor, deletion of residues 713 to 740 (human, UniProt P06213 28-1382)

Leptin Receptor, long form, P48357, sequence (P48357 22-1165): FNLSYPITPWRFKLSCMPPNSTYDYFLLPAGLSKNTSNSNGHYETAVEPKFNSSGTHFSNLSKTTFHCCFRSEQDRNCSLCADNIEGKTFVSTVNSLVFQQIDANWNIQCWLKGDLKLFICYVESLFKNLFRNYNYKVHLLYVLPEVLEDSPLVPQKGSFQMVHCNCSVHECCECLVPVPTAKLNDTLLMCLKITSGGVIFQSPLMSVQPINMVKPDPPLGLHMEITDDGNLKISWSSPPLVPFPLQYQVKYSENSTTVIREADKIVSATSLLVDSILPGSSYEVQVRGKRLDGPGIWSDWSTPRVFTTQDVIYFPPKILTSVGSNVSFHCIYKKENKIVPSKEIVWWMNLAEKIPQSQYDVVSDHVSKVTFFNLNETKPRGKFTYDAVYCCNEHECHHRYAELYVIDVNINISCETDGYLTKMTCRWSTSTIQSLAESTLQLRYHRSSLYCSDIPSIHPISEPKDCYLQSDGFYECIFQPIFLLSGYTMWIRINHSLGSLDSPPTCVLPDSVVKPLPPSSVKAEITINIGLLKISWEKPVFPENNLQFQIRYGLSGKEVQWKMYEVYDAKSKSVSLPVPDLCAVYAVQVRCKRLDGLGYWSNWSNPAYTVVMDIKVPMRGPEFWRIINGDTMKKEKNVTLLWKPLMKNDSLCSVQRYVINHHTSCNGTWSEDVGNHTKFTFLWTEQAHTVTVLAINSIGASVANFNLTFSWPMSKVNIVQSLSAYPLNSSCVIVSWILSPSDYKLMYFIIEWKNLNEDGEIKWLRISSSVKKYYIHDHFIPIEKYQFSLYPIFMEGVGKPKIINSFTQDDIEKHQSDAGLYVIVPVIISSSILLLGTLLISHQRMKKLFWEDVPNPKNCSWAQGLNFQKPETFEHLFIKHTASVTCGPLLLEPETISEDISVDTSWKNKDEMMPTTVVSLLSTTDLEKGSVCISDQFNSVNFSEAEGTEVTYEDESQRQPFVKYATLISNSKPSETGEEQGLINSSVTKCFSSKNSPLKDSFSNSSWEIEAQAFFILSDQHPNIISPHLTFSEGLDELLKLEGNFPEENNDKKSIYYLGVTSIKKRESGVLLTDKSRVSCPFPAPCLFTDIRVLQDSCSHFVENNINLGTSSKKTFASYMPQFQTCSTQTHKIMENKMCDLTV
Leptin Receptor, long form, sequence (P48357 22-1165): as above

percent internalized receptor at 5 min with 10 µM peptide (125I-insulin, acid wash) (human insulin receptor) | percent internalized receptor at 15 min with 10 µM peptide (125I-insulin, acid wash) (human insulin receptor) | percent internalized receptor at 30 min with 10 µM peptide (125I-insulin, acid wash) (human insulin receptor) | percent internalized receptor at 60 min with 10 µM peptide (125I-insulin, acid wash) (human insulin receptor) | percent internalized receptor at 5 min with 10 µM peptide (125I-insulin, acid wash) [3] | percent internalized receptor at 15 min with 10 µM peptide (125I-insulin, acid wash) [3] | percent internalized receptor at 30 min with 10 µM peptide (125I-insulin, acid wash) [3] | percent internalized receptor at 60 min with 10 µM peptide (125I-insulin, acid wash) [3] | Molecule | also measured
– | – | – | – | – | – | – | – | Leptin (from UniProt P41159 22-167) (ligand) | activation (phosphorylation) of JAK2 with 1 ng/ml of OB alone, quantified western blot (arbitrary units) [1]: 2
– | – | – | – | – | – | – | – | TWLGRQGPEGPSSIPPGTLTTLW [GLUT4pep] | enhancement of glucose uptake in rat adipose cells, 10 nM insulin + GLUT4pep (GLUT4): 24 fold
– | – | – | – | – | – | – | – | KKENKIVPSKEIVWWMNLAEKIP [Leptin Receptor derived peptide] | activation (phosphorylation) of JAK2 with 1 ng/ml of OB and 30 µM LRp together, quantified western blot (arbitrary units) [2]: 16; activation (phosphorylation) of JAK2 with 30 µM LRp alone, quantified western blot (arbitrary units) [2]: 8
5% | 9% | 14% | 17% | -1% | 0% | 2% | 1% | GNEQSFRVDLRTLLRYAGGGNEQSFRVDLRTLLRYA [DS-A85] | –
6% | 2% | 6% | 2% | 5% | -2% | 0% | 2% | KTDSQILKELEESSFRKTFEDYLH [Insulin receptor derived peptide] | enhancement of glucose uptake in rat adipose cells, insulin + 10 µM pepIR (GLUT4): 12 fold
